Experimental data: US20240200055A1, “TRANSFORMED CELL LINES EXPRESSING IL24-STAT3 AND METHODS FOR SCREENING AGENTS FOR TREATING BY TARGETING IL24-STAT3 SIGNALING PATHWAY USING THE SAME” (UIF (University Industry Foundation), Yonsei University, priority 2022, published 2024)

Assays:
[1] = test system: IL24-STAT3 signaling; experiment: IL24-induced STAT3 luciferase reporter activity in HeLa-IL24HTS cells, inhibitor test; format: cell-based, human; conditions: 1 μM Stattic, 150 ng/mL IL24, 8 hours, vs DMSO
Experimental: The selected and established HeLa-4.47 cells were cultured to 20% confluency on the day of infection. After removing the culture medium, lentivirus expressing hIL22RA1, hIL20RB or hSTAT3 was mixed with a culture medium and treated to the cells. After adding 2 μg of Polybrene per 1 mL of the virus, the plate was carefully shaken for mixing. After culturing for 15 hours under the condition of 37° C. and 5% CO2, the culture medium was replaced with a fresh one. 48 hours later, the transduced cells were cultured further and recombinant HeLa-IL24HTS cells were selected by culturing for 2 weeks in a medium containing 2 μg/mL puromycin, 5 μg/mL blasticidin S and 1,000 μg/mL G418 as antibiotics. Through this experiment, HeLa-4.47-hIL22RA1-hIL20RB-hSTAT3 cells that stably express all of hIL22RA1, hIL20RB and hSTAT3 were established and named HeLa-IL24HTS.
(§1) HeLa-IL24HTS cells and HeLa-EF1a-Luc2 cells were cultured on a 96-well plate at a concentration of 2.0×10^4 cells/well, respectively. After treating the cells with a vehicle (DMSO) (no Stattic) or 1 μM Stattic (CAS No: 19983-44-9), which is a STAT3 inhibitor, while treating with 150 ng/mL IL24 and culturing for 8 hours, luciferase activity was measured using a luciferase assay system (Promega).

[2] = test system: HeLa-EF1a-Luc2 cells; experiment: Luciferase reporter activity in HeLa-EF1a-Luc2 cells (background control); format: cell-based, human; conditions: 1 μM Stattic, 150 ng/mL IL24, 8 hours, vs DMSO
Experimental: Hela cells were cultured to 20% confluency on the day of infection. After removing the culture medium, lentivirus expressing Luc2 (LVX-EIP-Luc2) was mixed with a culture medium and treated to the cells. After adding 2 μg of Polybrene per 1 mL of the virus, the plate was carefully shaken for mixing. After culturing for 15 hours under the condition of 37° C. and 5% CO2, the culture medium was replaced with a fresh one. 48 hours later, the transduced cells were cultured further and recombinant HeLa-EF1a-Luc2 cells were selected by culturing for 2 weeks in a medium containing 2 μg/mL puromycin as an antibiotic.
as §1

[3] = test system: IL24-STAT3 signaling; experiment: Reporter activity of HeLa-IL24HTS cells treated with IL24 at different concentrations; format: cell-based, human; conditions: 15 ng/mL or higher IL24, 24 hours
Experimental: The HeLa-4.47 cells established in Test Example 2 were treated with lentivirus expressing hIL22RA1, hIL20RB or hSTAT3 and selected with 2 μg/mL puromycin, 5 μg/mL blasticidin S and 1,000 μg/mL G418 as antibiotics to obtain HeLa-4.47-hIL22RA1-hIL20RB-hSTAT3 cells (HeLa-IL24HTS) which stably express all of hIL22RA1, hIL20RB and hSTAT3. The specific process of preparing the HeLa-IL24HTS cell line was the same as described above.
After treating the prepared HeLa-IL24HTS cells with IL24 at different concentrations (0.15 ng/mL, 1.5 ng/mL, 15 ng/mL and 150 ng/mL) and culturing for 24 hours, luciferase activity was measured using a luciferase assay system (Promega). […] It can be seen that the HeLa-IL24HTS cells show strong reporter induction of 60 fold or higher in the presence of 15 ng/mL or higher IL24.

[4] = test system: IL24-STAT3 signaling; experiment: Luciferase activity of pGL4.47 HeLa clones co-transfected with hIL22RA1, hIL20RB and hSTAT3, with or without IL24; format: cell-based, human; conditions: 150 ng/mL IL24, 24 hours, clone 12 (HeLa-4.47)
Experimental: 2 mg of pGL4.47 (Promega, E4041), which is a STAT3 reporter plasmid, was linearized using the Pst1 restriction enzyme. The linearized plasmid was transfected into Hela cells using polyethyleneimine (Polysciences). 48 hours later, the cells were transferred to a 100-mm culture dish and only the transfected cells were selected by treating with 500 μg/mL hygromycin and culturing for 2 weeks. The selected transfected cells were cultured on a 96-well plate. The cells were dispensed at 0.5 cell per well. 33 clones were obtained by culturing further for 3 weeks. Each clone was mixed with pCMV-SPORT6-hIL22RA1 (Korea Human Gene Bank), pCMV3-hIL20RB (SinoBiological) and pCMV3-hSTAT3 (SinoBiological) at 1:1:1 for co-transfection. The transfected cells were treated or untreated with 150 ng/mL IL24. After culturing for 24 hours, luciferase activity was measured by luciferase assay. The clone with the strongest activity was established and named HeLa-4.47.
HeLa cells were transfected with pGL4.47 and selecting using hygromycin to obtain 33 clones. After co-transfecting each clone by mixing with pCMV-SPORT6-hIL22RA1, pCMV3-hIL20RB and pCMV3-hSTAT3 at 1:1:1, luciferase activity was measured using a luciferase assay system (Promega) for treatment with 150 ng/mL IL24 (IL24(+)) or absence of treatment (IL24(−)).

[5] = test system: IL24-STAT3 signaling; conditions: earlier literature reporter assay; cited from earlier work

Row | Molecule | reporter activity inhibited [1] | change in reporter activity [2] | reporter induction [3] [fold] | IL24(+)/IL24(−) ratio of luciferase activity [4] | increase of reporter signal by IL24 [5]
1 | O=[N+]([O-])c1ccc2c(c1)S(=O)(=O)C=C2 [Stattic] | about 80% | no significant change |  |  | 
2 | IL24: cytokine of the IL-10 family that signals through IL-20R1/IL-20R2 and IL-22R1/IL-20R2 and activates STAT3 (protein, UniProt Q13007 52-206, looked up) Interleukin-24: QEFHFGPCQVKGVVPQKLWEAFWAVKDTMQAQDNITSARLLQQEVLQNVSDAESCYLVHTLLEFYLKTVFKNYHNRTVEVRTLKSFSTLANNFVLIVSQLQPSQENEMFSIRDSAHRRFLLFRRAFKQLDVEAALTKALGEVDILLTWMQKFYKL |  |  | ≥ 60 | 150-200 | about 3 times
